# According to US20060141546A1, “Bacterial test method by glycated label binding” (priority 2002, published 2006):
# Test system: bacteria
# Experiment: Saturation binding / Scatchard analysis of glycoprotein binding to bacteria
# Conditions: ALP to bacteria
# Excerpt: There are several methods used to measure binding affinity. The methods of Lineweaver-Burke and Eadie-Hofstee are most popular. The data is used to create a Scatchard plot, where the X axis is the glycoprotein bound and the Y axis is glycoprotein bound divided by the free glycoprotein. From this graph the number of binding sites (also called Bmax, receptor number) is the X intercept and binding constant (also called affinity constant, Kd, or the equilibrium dissociation constant) is the negative reciprocal of the slope. Changes in slope reflect changes in the nature of binding sites and are often used to separate high affinity binding from low affinity binding sites. Commercially available software (GraphPad software Inc) exist to perform this analysis. Only high affinity binding was used in the instant experiments.
# Experimentally, saturation binding experiments are used measure glycoprotein binding at equilibrium at various concentrations of the glycoprotein. The saturation curve is a first constructed to plot the concentration of glycoprotein ligand on the X axis versus the all glycoprotein bound on the cell expressed as concentration of glycoprotein bound/number of bacteria cells on the Y axis. […] This same data is next plotted as a Scatchard plot with the number of binding sites and binding constants determined for the pairs of glycoprotein and bacteria tested. […]
molecule,measurement,setting,value
"ALP: bovine intestinal alkaline phosphatase, glycoprotein enzyme that binds bacteria and serves as label (protein, UniProt P19111 20-506, looked up) Intestinal-type alkaline …: LVPVEEEDPAFWNRQAAQALDVAKKLQPIQTAAKNVILFLGDGMGVPTVTATRILKGQMNGKLGPETPLAMDQFPYVALSKTYNVDRQVPDSAGTATAYLCGVKGNYRTIGVSAAARYNQCKTTRGNEVTSVMNRAKKAGKSVGVVTTTRVQHASPAGAYAHTVNRNWYSDADLPADAQMNGCQDIAAQLVNNMDIDVILGGGRKYMFPVGTPDPEYPDDASVNGVRKRKQNLVQAWQAKHQGAQYVWNRTALLQAADDSSVTHLMGLFEPADMKYNVQQDHTKDPTLQEMTEVALRVVSRNPRGFYLFVEGGRIDHGHHDDKAYMALTEAGMFDNAIAKANELTSELDTLILVTADHSHVFSFGGYTLRGTSIFGLAPSKALDSKSYTSILYGNGPGYALGGGSRPDVNDSTSEDPSYQQQAAVPQASETHGGEDVAVFARGPQAHLVHGVEEETFVAHIMAFAGCVEPYTDCNLPAPTTATSIPD",binding constant,"Scatchard analysis, high affinity binding",5×10^+6
same,number of binding sites,estimated from the Scatchard analysis,590
